# Measurements: paper PMC10572589
# B1: xylanase inhibitor protein SyXIP-I (natural protein)
# chain: AGGKTGQVTVFWGRNKAEGSLREACDSGMYTMVTMSFLDVFGANGKYHLDLSGHDLSSVGADIKHCQSKGVPVSLSIGGYGTGYSLPSNRSALDLFDHLWNSYFGGSKPSVPRPFGDAWLDGVDLFLEHGTPADRYDVLALELAKHNIRGGPGKPLHLTATVRCGYPPAAHVGRALATGIFERVHVRTYESDKWCNQNLGWEGSWDKWTAAYPATRFYVGLTADDKSHQWVHPKNVYYGVAPVAQKKDNYGGIMLWDRYFDKQTNYSSLIKYYA
# Key:
# [1] = target: thermostable GHF11 xylanase AusM (Aspergillus usamii E001 (parent AuXyn11A))
# [2] = target: AusM^N127A (Aspergillus usamii E001 (parent AuXyn11A))
binder,measurement,setting,value
B1,molar excess of SyXIP-I over AusM needed for almost complete inhibition of xylanase activity (mol SyXIP-I per mol AusM),[1],> 80
same,"molar ratio of SyXIP-I to AusM at which the inhibition rate of xylanase activity reached 50% (birchwood xylan, pH 4.6, 50 °C) (mol SyXIP-I per mol AusM)",[1],7
same,residual xylanase activity at a molar ratio of SyXIP-I/xylanase of 100:1 (% of initial activity),[2],62.7
